Measured values: patent US20110217237A1 (AbbVie / Abbott, published 2011)
Residue numbers refer to the chain shown, from its start. Read-outs that look alike come from different tables or passages of the source.

B1: 37D10 chimeric antibody (antibody, human IgG1, V domains shown)
VH: AVQLVESGGGLVQPKESLKISCAASGFTFSNAAMYWVRLAPGKGLEWVARIRTKPNNYATYYAESVKGRFTISRDDSKSMVYVQMDNLKTEDTAMYYCTAAPWRDSYAHVYWGQGVMVTVSS
VL: DIQMTQSPPVLSASVGDRVTLSCKASQNIHKNLDWYQQKHGDAPKLLIYYTDHLQTGVPSRFSGSGSATDYTLTISSLQPEDVATYYCYQYNGGPFTFGSGTKLEIKR
notes: also called Chimera of 37D10
B2: 15D6 rat anti-DLL4 monoclonal antibody (antibody, rat IgG2a, V domains shown)
VH: EVQLQQSGPELAKPGSSVKISCKASGYTFTSSYISWIKQTTGQGLEYIGYINTGSGGTDYNEKFKDKATLTVDKSSRTVFMQLSSLTPGDSAVYYCAKSILLGSTYYLDYWGQGVMVTVSS
VL: DTVLTQSPALAVSLGQRVTISCKASRSLSSPMYSYIYWYQQKLGQQPRLLIYRASTLASGVPARFSGSGSGTDFTLNIDPVEADDIATYFCQQSWSDPFTFGSGTKLEIKR
notes: rat IgG2a/K hybridoma mAb; also called MC13-15D6.1G7
B3: 14A11 chimeric antibody (antibody, human IgG1, V domains shown)
VH: B2 VH with S31N, I48V, T58A, D66G, V79A, Y106C, L108F, M116L
VL: B2 VL with D1N, L28V, L43P, R48K
notes: also called Chimera of 14A11
B4: 15D6 chimeric antibody (antibody, human IgG1, V domains shown)
VH: B2 VH
VL: B2 VL
notes: also called Chimera of 15D6
B5: 14G1 rat anti-DLL4 monoclonal antibody (antibody, rat IgG2a, V domains shown)
VH: EVQLQQSGAELAKPGSSVKISCKASGYTFTNYDISWIKQTNGQGLEYLGYINTGSGGIYSNEKFKGKATLTVDKSSNTAFMQLSSLTPEDTAVYYCVREGNNFDHWGQGVKVTVSS
VL: DTVMTQSPASMSTSVGERVTVNCKASQSVGTIVAWFQQKPGQSPKRLIYLATYRHTGVPDRFIGSGFGRDFTLTISNVEAEDLAVYYCLQYGSRPFTFGAGTKLEIKR
notes: rat IgG2a/K hybridoma mAb; also called MC13-14G1.1B4
B6: 32C7 rat anti-DLL4 monoclonal antibody (antibody, rat IgG2a, V domains shown)
VH: EVQLVESGGGLVQPGRSLKLSCLASGFPFSSVWMTWIRQAPGKGLEWIATITNSGASTYYSASVKGRFTISRDNVKSTLYLQMTSLGSEDTATYYCTRVGTSFDYWGQGVMVTVSS
VL: DIQMTQSPASLSASLGETVTIECRASDDIYNGLAWFQQKPGKSPQLLIYDANTLHTGVPSRFSGSGSGTQFSLKINSLQSEDVASYFCQQFYDYPPYTFGAGTKLELKR
notes: rat IgG2a/k hybridoma mAb; also called MC10-32C7.5A4

What was measured:
mouse DLL4 on cells [1] = molecular target: T1, mouse DLL4 on cells (mouse, UniProt Q9JI71 27-686); test: FACS, DLL4 cells
T1 construct: whole, on cells; also called mouse DLL4-293G; mu DLL4 cells

[2] = molecular target: T2, human DLL4, full length, on cells (human, UniProt Q9NR61 27-685); test: FACS, DLL4 cells
T2 construct: also called huDLL4 cells; human DLL4-293G

mouse DLL4 on cells [3] = molecular target: T1, mouse DLL4 on cells; test: competition FACS: huNotch-1 to DLL4 cells
Experimental: (§1) Notch blocking assay: Briefly, stable cell lines overexpressing cell-surface DLL4 were harvested from tissue culture flasks and re-suspended in phosphate buffered saline (PBS) containing 1% bovine serum albumin and 1 mM CaCl₂ (FACS buffer). HEK293G-DLL4 cells were dispensed into 96-well plate (v-bottom) at 1.5×10⁵ cells/well in FACS buffer. After spinning down cells and discarding the supernatant, 50 μL of purified IgG with appropriate dilution were added to each well, and incubated on ice at 4° C. for 60 minutes, followed by addition of 50 μL/well of Notch1-biotin at 0.2 μg/mL for human DLL4-293G or 2.0 μg/mL for mouse DLL4-293G (1.0 or 0.1 μg/mL final) for an additional 1 hour incubation ice at 4° C. After washing the cells two times with FACS buffer, 50 μL of R-phycoerythrin-conjugated streptavidin (1:150 dilution in FACS buffer) (Jackson ImmunoResearch, West Grove, Pa., Cat.#016-110-084) were added. Following an incubation on ice (4° C., 60 minutes), cells were washed three times and resuspended in FACS buffer. Fluorescence was measured using a Becton Dickinson FACSCalibur-HTS (Becton Dickinson, San Jose, Calif.). Data were analyzed using Graphpad Prism software, and IC₅₀ values were reported as the concentration of antibody to achieve 50% reduction of Notch1 bound to DLL4 expressing cells.

[4] = molecular target: T2, human DLL4, full length, on cells; test: competition FACS: huNotch-1 to DLL4 cells
Experimental: as §1

[5] = molecular target: T3, mouse DLL4 extracellular domain (mouse, UniProt Q9JI71 27-532); test: SPR (Biacore)
T3 construct: extracellular domain; also called muDLL4 ECD; murine DLL4
Method in brief: (§2)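 Purified anti-DLL4 antibodies (1 μg/ml) captured on immobilized goat anti-human Fc, with DLL4 ECD injected as analyte; HBS-EPB running buffer (pH 7.4), 25° C, referenced against capture-only surface. On/off rates from global 1:1 Langmuir fit; KD = Koff/Kon.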

[6] = molecular target: T4, rat DLL4 extracellular domain (rat, UniProt D3ZHH1 28-530); test: SPR (Biacore)
T4 construct: extracellular domain; also called ratDLL4 ECD
Method in brief: as §2

[7] = molecular target: T2, human DLL4, full length, on cells; test: cell-based or functional assay
mouse DLL4 on cells [8] = molecular target: T1, mouse DLL4 on cells; test: competition FACS: huNotch-1-biotin to DLL4 cells
Experimental: as §1, with “cells. […]” for “cells.”

[9] = molecular target: T2, human DLL4, full length, on cells; test: competition FACS: huNotch-1-biotin to DLL4 cells
Experimental: as §1, with “cells. […]” for “cells.”

mouse DLL4 on cells [10] = molecular target: T1, mouse DLL4 on cells; test: FACS, DLL4 cells; remark: listed apart in the source
Experimental: (§3) Stable cell lines overexpressing cell-surface DLL4 were harvested from tissue culture flasks, washed four times and resuspended in phosphate buffered saline (PBS) containing 1% bovine serum albumin and 1 mM CaCl₂ (FACS buffer). 1.5×10⁵ cells were incubated with antibodies at various concentrations in FACS buffer for 60 minutes on ice. […] Following an incubation on ice (4° C., 60 minutes), cells were washed three times and resuspended in FACS buffer. Fluorescence was measured using a Becton Dickinson FACSCalibur-HTS (Becton Dickinson, San Jose, Calif., US). Data were analyzed using Graphpad Prism software and EC₅₀ values were reported as the concentration of antibody to achieve 50% of maximal DLL4 antibodies binding to DLL4 expressing cells. […]

[11] = molecular target: T2, human DLL4, full length, on cells; test: FACS, DLL4 cells; remark: listed apart in the source
Experimental: as §3

[12] = molecular target: T5, cynomolgus monkey DLL4 extracellular domain (cynomolgus monkey); test: SPR (Biacore)
T5 construct: extracellular domain; also called cynoDLL4 ECD; Cyno DLL4
Experimental: (§4) The BIACORE® surface plasmon resonance assay (Biacore, Inc., Piscataway, N.J., US) determines the affinity of antibodies with kinetic measurements of on-rate and off-rate constants. Binding of DLL4 antibodies to a purified recombinant DLL4 extracellular domain (ECD) was determined by surface plasmon resonance-based measurements with a Biacore® instrument (either a Biacore 2000, Biacore 3000, or Biacore T100; GE Healthcare, Piscataway, N.J., US) using running buffer HBS-EPB (10 mM HEPES [pH 7.4], 150 mM NaCl, 3 mM EDTA, 0.1 mg/ml BSA and 0.005% surfactant P20) at 25° C. For example, approximately 9000 RU of goat anti-human Fc specific polyclonal antibody (Thermo Fisher Scientific Inc., Rockford, Ill., US) diluted in 10 mM sodium acetate (pH 4.5) is directly immobilized across a CMS research grade biosensor chip using a standard amine coupling kit according to manufacturer's instructions and procedures at 25 μg/ml. Unreacted moieties on the biosensor surface were blocked with ethanolamine. For kinetic analysis, rate equations derived from the 1:1 Langmuir binding model were fitted simultaneously to multiple antigen injections (using global fit analysis) with the use of Scrubber 2 (BioLogic Software), Biacore Biaevaluation 4.0.1 software or Biacore T100 Evaluation software. Purified antibodies were diluted in running buffer for capture across goat anti-human Fc reaction surfaces. Antibodies to be captured as a ligand (1 μg/ml) were injected over reaction matrices at a flow rate of 10 μl/min. During the assay, all measurements were referenced against the capture surface alone (i.e., with no captured anti-DLL4 antibody). […] The equilibrium dissociation constant KD (M) of the reaction between antibodies and the target antigen was then calculated from the kinetic rate constants by the following formula: KD=Koff/Kₒₙ. Binding was recorded as a function of time and kinetic rate constants were calculated.

[13] = molecular target: T6, human DLL4 extracellular domain (human, UniProt Q9NR61 27-529); test: SPR (Biacore)
T6 construct: purified recombinant ECD; biotin-labelled or 6xHis-tagged depending on the assay; also called huDLL4 ECD; hu DLL4 ECD
Experimental: as §4

[14] = molecular target: T3, mouse DLL4 extracellular domain; test: binding ELISA, DLL4 ECD
[15] = molecular target: T6, human DLL4 extracellular domain; test: binding ELISA, DLL4 ECD

T3 sequence (Q9JI71 27-532): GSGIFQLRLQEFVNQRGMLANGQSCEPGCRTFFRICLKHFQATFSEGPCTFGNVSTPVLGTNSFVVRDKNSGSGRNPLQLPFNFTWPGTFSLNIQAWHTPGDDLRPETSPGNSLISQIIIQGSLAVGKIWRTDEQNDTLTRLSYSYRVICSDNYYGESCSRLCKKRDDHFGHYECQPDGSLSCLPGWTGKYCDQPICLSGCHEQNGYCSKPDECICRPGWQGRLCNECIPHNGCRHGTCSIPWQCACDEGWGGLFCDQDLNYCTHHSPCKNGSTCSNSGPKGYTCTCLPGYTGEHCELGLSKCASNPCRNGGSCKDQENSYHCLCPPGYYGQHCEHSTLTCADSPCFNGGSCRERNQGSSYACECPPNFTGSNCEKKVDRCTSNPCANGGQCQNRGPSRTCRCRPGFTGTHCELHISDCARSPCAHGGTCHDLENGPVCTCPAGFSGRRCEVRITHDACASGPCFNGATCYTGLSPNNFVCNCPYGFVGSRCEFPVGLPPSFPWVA
T1 sequence (Q9JI71 27-686): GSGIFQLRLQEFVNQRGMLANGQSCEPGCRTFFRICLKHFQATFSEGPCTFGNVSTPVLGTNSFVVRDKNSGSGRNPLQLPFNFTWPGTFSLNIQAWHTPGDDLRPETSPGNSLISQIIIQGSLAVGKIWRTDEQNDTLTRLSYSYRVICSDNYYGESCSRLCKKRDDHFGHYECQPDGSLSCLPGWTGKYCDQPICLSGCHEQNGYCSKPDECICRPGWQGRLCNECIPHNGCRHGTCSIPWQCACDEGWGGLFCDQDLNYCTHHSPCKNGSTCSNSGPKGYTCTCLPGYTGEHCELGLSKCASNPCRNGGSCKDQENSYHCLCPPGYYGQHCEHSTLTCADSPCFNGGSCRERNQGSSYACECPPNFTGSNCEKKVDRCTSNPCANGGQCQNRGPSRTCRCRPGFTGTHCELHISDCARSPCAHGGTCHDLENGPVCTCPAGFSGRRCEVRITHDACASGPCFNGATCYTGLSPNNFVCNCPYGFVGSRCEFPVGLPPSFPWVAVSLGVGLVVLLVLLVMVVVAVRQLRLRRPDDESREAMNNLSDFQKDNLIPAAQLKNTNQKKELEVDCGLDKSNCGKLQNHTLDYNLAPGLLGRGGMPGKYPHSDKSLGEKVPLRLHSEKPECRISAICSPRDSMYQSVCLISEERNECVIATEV
T6 sequence (Q9NR61 27-529 limits assumed): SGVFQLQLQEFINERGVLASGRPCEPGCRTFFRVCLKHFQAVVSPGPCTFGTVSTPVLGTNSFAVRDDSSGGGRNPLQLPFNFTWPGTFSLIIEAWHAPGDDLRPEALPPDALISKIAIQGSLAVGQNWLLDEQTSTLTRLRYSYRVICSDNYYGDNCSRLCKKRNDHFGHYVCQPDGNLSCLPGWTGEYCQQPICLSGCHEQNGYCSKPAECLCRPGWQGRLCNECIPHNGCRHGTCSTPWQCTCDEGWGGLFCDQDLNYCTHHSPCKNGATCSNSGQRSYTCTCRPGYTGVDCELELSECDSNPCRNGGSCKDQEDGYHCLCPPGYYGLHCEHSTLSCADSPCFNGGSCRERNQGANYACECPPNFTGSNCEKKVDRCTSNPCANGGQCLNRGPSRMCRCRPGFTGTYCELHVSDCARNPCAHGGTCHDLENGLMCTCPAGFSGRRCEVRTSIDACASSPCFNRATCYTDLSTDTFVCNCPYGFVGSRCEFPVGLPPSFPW
T2 sequence (Q9NR61 27-685 limits assumed): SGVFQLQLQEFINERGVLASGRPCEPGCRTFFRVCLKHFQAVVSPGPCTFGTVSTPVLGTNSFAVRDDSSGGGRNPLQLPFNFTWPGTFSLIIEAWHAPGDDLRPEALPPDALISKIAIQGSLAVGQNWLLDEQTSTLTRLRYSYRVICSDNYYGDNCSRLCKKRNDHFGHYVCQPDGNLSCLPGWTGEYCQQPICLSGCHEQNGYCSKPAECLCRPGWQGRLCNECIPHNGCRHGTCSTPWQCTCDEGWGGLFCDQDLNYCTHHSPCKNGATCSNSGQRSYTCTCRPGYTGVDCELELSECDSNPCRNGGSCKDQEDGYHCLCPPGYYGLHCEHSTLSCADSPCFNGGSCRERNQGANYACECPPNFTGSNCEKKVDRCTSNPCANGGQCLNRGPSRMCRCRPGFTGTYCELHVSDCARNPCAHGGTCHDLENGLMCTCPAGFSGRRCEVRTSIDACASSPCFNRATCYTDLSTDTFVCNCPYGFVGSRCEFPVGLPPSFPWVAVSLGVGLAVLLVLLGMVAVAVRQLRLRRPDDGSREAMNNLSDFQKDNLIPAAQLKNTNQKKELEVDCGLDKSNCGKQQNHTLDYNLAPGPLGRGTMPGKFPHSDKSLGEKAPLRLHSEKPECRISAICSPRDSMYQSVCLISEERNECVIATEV
T4 sequence (D3ZHH1 28-530): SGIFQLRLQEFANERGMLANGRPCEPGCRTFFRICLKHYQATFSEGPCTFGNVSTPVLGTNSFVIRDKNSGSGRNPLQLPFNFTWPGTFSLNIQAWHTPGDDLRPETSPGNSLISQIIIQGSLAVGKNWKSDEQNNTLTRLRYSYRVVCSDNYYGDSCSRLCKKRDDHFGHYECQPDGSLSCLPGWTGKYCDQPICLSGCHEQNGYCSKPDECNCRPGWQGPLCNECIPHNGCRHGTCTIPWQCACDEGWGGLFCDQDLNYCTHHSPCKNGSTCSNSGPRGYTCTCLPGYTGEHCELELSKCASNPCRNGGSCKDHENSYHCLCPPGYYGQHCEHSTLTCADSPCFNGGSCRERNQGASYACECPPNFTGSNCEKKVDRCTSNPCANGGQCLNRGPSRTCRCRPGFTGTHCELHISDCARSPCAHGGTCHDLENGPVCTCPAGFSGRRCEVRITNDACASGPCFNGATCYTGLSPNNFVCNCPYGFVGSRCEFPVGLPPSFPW

Binder | EC50 (mouse DLL4 on cells [1]) | EC50 [2] | IC50 (mouse DLL4 on cells [3]) | IC50 [4] | Kd [5] | koff [5] | kon [5] | binding result [6] | Notch activation Inhibition (IC50, nM), huDLL4 cell/Notch reporter cells [7] | IC50 [9] | EC50 (mouse DLL4 on cells [10]) | EC50 [11] | Kd [12] | koff [12] | kon [12] | Kd [13] | koff [13] | kon [13] | other results
B1 | 0.99 nM | 2.32 nM | 4.39 nM | 5.95 nM | – | – | – | – | – | – | – | – | – | – | – | – | – | – | –
B2 | – | – | – | – | 0.7 nM | 5.1e-05 s⁻¹ | 74000 M⁻¹ s⁻¹ | no binding | 3.2 nM | 25 nM | 1.6 nM | 15 nM | 14.9 nM | 0.00083 s⁻¹ | 56000 M⁻¹ s⁻¹ | 9.2 nM | 0.001 s⁻¹ | 110000 M⁻¹ s⁻¹ | IC50 (mouse DLL4 on cells [8]): 1.5 nM
B3 | 2.14 nM | 1.61 nM | 1.39 nM | 4.03 nM | – | – | – | – | – | – | – | – | – | – | – | – | – | – | –
B4 | 1.82 nM | 1.72 nM | 1.49 nM | 10.5 nM | – | – | – | – | – | – | – | – | – | – | – | – | – | – | –
B5 | – | – | – | – | – | – | – | no binding | 6.1 nM | 4.2 nM | > 50 nM | 8.6 nM | 10.5 nM | 0.00041 s⁻¹ | 39000 M⁻¹ s⁻¹ | 7.2 nM | 0.00039 s⁻¹ | 54000 M⁻¹ s⁻¹ | binding result [5]: no binding
B6 | – | – | – | – | 88 nM | 0.0041 s⁻¹ | 48000 M⁻¹ s⁻¹ | – | – | – | 0.8 nM | 3.1 nM | 0.03 nM | 6.3e-06 s⁻¹ | 220000 M⁻¹ s⁻¹ | 0.03 nM | 7e-06 s⁻¹ | 280000 M⁻¹ s⁻¹ | EC50 [14]: 0.15 nM; EC50 [15]: 0.08 nM
